Experiments:
[1] = molecular target: T1, MCP-2; assay: MSD electrochemiluminescence assay; chemokine coated at 1 µg/mL, 7D12A at 3 µg/mL; background = BSA
T1 construct: also called MCP-2/CCL8; CCL8
T1 chemokine: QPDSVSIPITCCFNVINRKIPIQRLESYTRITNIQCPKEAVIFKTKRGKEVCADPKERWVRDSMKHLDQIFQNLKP

[2] = molecular target: T2, human PARC/CCL18 (human, UniProt P55774 21-89); assay: as above
T2 sequence: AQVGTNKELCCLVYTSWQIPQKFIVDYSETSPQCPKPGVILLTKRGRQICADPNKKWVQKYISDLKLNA

[3] = molecular target: T3, human MPIF-1/CCL23 (human, UniProt P55773 46-120); assay: as above
T3 sequence: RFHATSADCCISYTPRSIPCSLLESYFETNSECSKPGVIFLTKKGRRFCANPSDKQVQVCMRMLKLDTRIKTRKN

[4] = molecular target: T4, human HCC-2/MIP-1δ/CCL15 (human, UniProt Q16663 46-113); assay: as above
T4 sequence: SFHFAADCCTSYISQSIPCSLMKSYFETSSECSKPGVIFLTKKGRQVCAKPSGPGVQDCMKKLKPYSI

[5] = molecular target: T5, Fractalkine; assay: as above
T5 construct: also called Fractalkine/CX3CL1; CX3CL1
T5 chemokine: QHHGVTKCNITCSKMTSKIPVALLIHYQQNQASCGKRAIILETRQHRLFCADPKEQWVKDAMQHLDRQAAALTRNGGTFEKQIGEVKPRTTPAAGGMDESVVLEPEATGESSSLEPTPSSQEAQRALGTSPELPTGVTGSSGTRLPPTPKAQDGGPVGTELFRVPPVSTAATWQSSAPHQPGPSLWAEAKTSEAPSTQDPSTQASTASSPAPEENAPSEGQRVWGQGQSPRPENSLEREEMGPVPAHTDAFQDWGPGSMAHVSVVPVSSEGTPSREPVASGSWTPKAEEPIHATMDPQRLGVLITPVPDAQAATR

[6] = molecular target: T6, human MCP-1/CCL2 (human, UniProt P13500 24-99); assay: as above
T6 construct: also called Biotin-MCP1
T6 sequence (P13500 24-99 limits assumed): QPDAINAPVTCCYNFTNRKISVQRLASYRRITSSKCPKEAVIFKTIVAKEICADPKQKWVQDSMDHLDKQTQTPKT

[7] = molecular target: T7, MCP-4; assay: as above
T7 construct: also called MCP-4/CCL13; CCL13
T7 sequence (chemokine, as listed by the source): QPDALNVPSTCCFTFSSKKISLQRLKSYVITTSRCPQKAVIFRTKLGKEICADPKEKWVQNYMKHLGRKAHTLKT

[8] = molecular target: T8, Eotaxin; assay: as above
T8 construct: also called Eotaxin/CCL11; CCL11
T8 sequence (chemokine, as listed by the source): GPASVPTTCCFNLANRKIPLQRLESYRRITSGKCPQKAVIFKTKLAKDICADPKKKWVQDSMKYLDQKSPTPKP

[9] = molecular target: T9, MDC; assay: as above
T9 construct: also called MDC/CCL22; CCL22
T9 chemokine: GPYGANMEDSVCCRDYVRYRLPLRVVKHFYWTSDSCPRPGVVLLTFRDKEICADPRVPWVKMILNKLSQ

[10] = molecular target: T10, I-309; assay: as above
T10 construct: also called I-309/CCL1; CCL1
T10 chemokine: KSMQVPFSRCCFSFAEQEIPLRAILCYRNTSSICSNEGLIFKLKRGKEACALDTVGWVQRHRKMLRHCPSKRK

[11] = molecular target: T11, ELC; assay: as above
T11 construct: also called ELC/MIP-3β/CCL19; CCL19
T11 chemokine: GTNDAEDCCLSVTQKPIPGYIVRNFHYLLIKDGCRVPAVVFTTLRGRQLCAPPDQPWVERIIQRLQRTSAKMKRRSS

[12] = molecular target: T12, SDF; assay: as above
T12 construct: also called SDF-1/CXCL12; CXCL12
T12 sequence (chemokine, as listed by the source): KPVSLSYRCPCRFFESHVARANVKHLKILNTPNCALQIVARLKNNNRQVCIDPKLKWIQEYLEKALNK

[13] = molecular target: T13, HCC-4; assay: as above
T13 construct: also called HCC-4/CCL16; CCL16
T13 chemokine: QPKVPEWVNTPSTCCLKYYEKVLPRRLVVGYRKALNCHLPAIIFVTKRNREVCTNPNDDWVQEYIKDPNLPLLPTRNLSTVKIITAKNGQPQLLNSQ

[14] = molecular target: T14, human HCC-1/CCL14/CCL14a (human, UniProt Q16627 28-93); assay: as above
T14 sequence: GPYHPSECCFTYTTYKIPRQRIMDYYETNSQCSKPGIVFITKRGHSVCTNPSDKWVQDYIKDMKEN

[15] = molecular target: T15, human MIP-1β/CCL4 (human, UniProt Q8NHW4 24-92); assay: ELISA, hybridoma fusion-well supernatant on biotinylated chemokine on streptavidin plate; background approx. 0.150
T15 construct: also called Biotin-MIP-1β
T15 chain: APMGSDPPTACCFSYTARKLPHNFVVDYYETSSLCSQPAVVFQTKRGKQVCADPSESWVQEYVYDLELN

[16] = molecular target: T6, human MCP-1/CCL2; assay: as above
[17] = molecular target: T16, human RANTES/CCL5 (human, UniProt P13501 24-91); assay: as above
T16 construct: also called Biotin-RANTES
T16 sequence: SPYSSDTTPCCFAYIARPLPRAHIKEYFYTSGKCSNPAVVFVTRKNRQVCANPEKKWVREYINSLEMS

B1: monoclonal antibody 7D12A (antibody, V domains shown)
VH: EVHLQESGPSLVKPSQTLSLTCSVTGDSITNGYWNWIRKFPGNKLDYMGYISYDGNTYYNPSLKSRFSITRDTSKNQYYLQLNSVTTEDTATYYCSRGDYGTYVMDYWGQGTSVTVSS
VL: NIVLTQSPVSLAVSLGQRATISCRASESVDSHGNSFMHWYQQKPGQPPKLLIYLASNLESGVPARFTGGGSGSDFTLTIDPVEADDVGTYYCQQNNEDPYTFGGGTKLEIK
notes: also called MAb 7D12A
binding result [1]: no binding (tested: 3 µg/mL)
binding result [2]: no binding (tested: 3 µg/mL)
binding result [3]: binds
binding result [4]: no binding (tested: 3 µg/mL)
binding result [5]: no binding (tested: 3 µg/mL)
binding result [6]: no binding (tested: 3 µg/mL)
binding result [7]: no binding (tested: 3 µg/mL)
binding result [8]: no binding (tested: 3 µg/mL)
binding result [9]: no binding (tested: 3 µg/mL)
binding result [10]: no binding (tested: 3 µg/mL)
binding result [11]: no binding (tested: 3 µg/mL)
binding result [12]: no binding (tested: 3 µg/mL)
binding result [13]: no binding (tested: 3 µg/mL)
binding result [14]: no binding (tested: 3 µg/mL)
ELISA signal [15]: 2.68
ELISA signal [16]: 0.246
ELISA signal [17]: 0.178
